Results on 24 sequences are retold here after the supplement of paper PMC9170038.

For the series, the system named is MS2 coat protein. Description: apparent KD of MS2 coat protein; designed switch direction (-1 OFF switch, 1 ON switch): -1; higher = weaker reporter binding. In outline:
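The apparent KD reported per design is the median over clusters of curve fits to normalised cluster fluorescence. The RNA switches were transcribed on Illumina chips by stalled E. coli RNA polymerase. SNAP-549-labelled MS2 coat protein was titrated from 0.7 or 1.5 nM, doubling up to 3 µM, in Tris-HCl pH 7.5 buffer containing KCl, MgCl2, BSA, DTT, tRNA and Tween-20, with no input, 200 uM small-molecule ligand, or an oligonucleotide input.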

The mark [1] stands for this setting: input ligand: microRNA oligo, concentration not stated.
Setting [2] is: Eterna round: R95, input ligand: microRNA oligo, concentration not stated.
Where [3] appears, read: Eterna round: R95, input ligand: FMN 200 uM.
[4] abbreviates: Eterna round: R95, input ligand: none.

“AAGCAUUGCCAAAGGUAGUGCAAAACAUGAGGAUCACCCAUGUAGGAUAUGGUAGGCAAAGCUUACCAGAAGGACAUGAUAAAU [Mat - Exclusion NG 3 - Mod of JL - D19] (Eterna round: R96, puzzle: Exclusion NG 3)”: the “apparent KD of MS2 coat protein” value (input ligand: FMN 200 uM) is 218 nM, the “apparent KD of MS2 coat protein” value under setting [1] stood at 28 nM and the “apparent KD of MS2 coat protein” value (input ligand: none) is 42 nM.

“AAGGAUAGAGGAUAUACAUAGAUACAGAUUCAUGUAAUCCUACAUGAGGAUCACCCAUGUAGAAGGCUAUCCUA [Fiskers Ex 2 - 15] (puzzle: Exclusion 2)”: under setting [2], the “apparent KD of MS2 coat protein” value was determined as 14.5 nM.

“AAGGAUAGAGGAUAUACGUAGAUACAGAUUCAUGUAGAACUACAUGAGGAUCACCCAUGUAGAAGGCUAUCCUA [Fiskers Ex 2 - 6] (Eterna round: R96, puzzle: Exclusion 2)”: the “apparent KD of MS2 coat protein” value runs as follows: (input ligand: FMN 200 uM) 354 nM; under setting [1], 24.8 nM; (input ligand: none) 29 nM.

Take “AAGGAUAGAGGAUAUACGUAGAUACAGAUUCAUGUAGAACUACAUGAGGAUCACCCAUGUAGAAGGCUAUCCUA [Fiskers Ex 2 - 6] (puzzle: Exclusion 2)”: under setting [2], the “apparent KD of MS2 coat protein” value was 26.5 nM.

As for “AAGGAUAGAGGAUAUGCAUAGAUACAGAUUCAUGUAGAACUACAUGAGGAUCACCCAUGUAGAAGGCUAUCCUA [Fiskers Ex 2 - 5] (puzzle: Exclusion 2)”, the “apparent KD of MS2 coat protein” value under setting [2] was 17.3 nM.

As to “AAGGAUCGAGGAUAUACAUAGAUACAGAUUCAUGUAGAACUACAUGAGGAUCACCCAUGUAGAAGGCGAUCCUA [Mat - Same state - Mayanna Mod - D120] (Eterna round: R96, puzzle: Exclusion 2)”, the “apparent KD of MS2 coat protein” value was determined as 367 nM (input ligand: FMN 200 uM), 31.1 nM under setting [1] and 41.3 nM (input ligand: none).

As to “AAGGGUACUUUCAGAACGACAUGAGGAUCACCCAUGUAGACUGAGGAUAUCUGCUACUAAGGACGGGAGAAGGCAGUGUAAUGU [Ex NG3 #74] (Eterna round: R96, puzzle: Exclusion NG 3)”, the “apparent KD of MS2 coat protein” value turned out to be 10.6 nM (input ligand: FMN 200 uM), 11.1 nM under setting [1] and 14.2 nM (input ligand: none).

As for “AAGGGUGCUUUCAGAACGACAUGAGGAUCACCCAUGUAGACUGAGGAUAUCUACUCCUAAGGACGGGAGAAGGCAGUGUAAUGC [Ex NG3 #65] (Eterna round: R96, puzzle: Exclusion NG 3)”, the “apparent KD of MS2 coat protein” value runs as follows: (input ligand: FMN 200 uM) 19.5 nM; under setting [1], 14.2 nM; (input ligand: none) 21.7 nM.

Turning to “AAGUACCGUCACGAUAGUGAUGGUACAACAGGCAGUGAAACAUGAGGAUCACCCAUGUCCUCAAUUGCUCGUCUUAU [Sensor 3 - 77] (puzzle: Sensor v3, turn-off variant 2)”, the “apparent KD of MS2 coat protein” value was determined as 77.6 nM under setting [3], 192 nM under setting [2] and 98.7 nM under setting [4].

As for “AAGUAGACGGUGAGGAUAUAGGUCGAAUGACCGAUUUAGAAGGUACAUGAGGAUCACCCAUGUGGGUAACGUCG [Brourd's EX4 #29] (Eterna round: R97, puzzle: Brourd's mod of Exclusion 4)”, the “apparent KD of MS2 coat protein” value is, setting by setting: (input ligand: FMN 200 uM) 56.5 nM; (input ligand: none) 107 nM.

On to “AAGUAUAGAGGAUAUAGUGAGUACUACAUGAGGAUCACCCAUGUUCUUCAUUACGUAUUUCUAGAAGGCUGAUAAA [EX-5 Malc#24] (puzzle: Exclusion 5)”, for which the “apparent KD of MS2 coat protein” value by setting is: under setting [3], 611 nM; under setting [2], 261 nM; under setting [4], 289 nM.

For the sequence “AAGUCGACGGUGAGGAUAUAGGUCGAACGACAGAUCUAGAAGGUACAUGAGGAUCACCCAUGUGGGUAACGUCG [Brourd's EX4 #35] (Eterna round: R97, puzzle: Brourd's mod of Exclusion 4)”, the “apparent KD of MS2 coat protein” value (input ligand: FMN 200 uM) stood at 36.8 nM and the “apparent KD of MS2 coat protein” value (input ligand: none) worked out at 32.4 nM.

Regarding “AAGUCGACGGUGAGGAUAUAGGUCGAACGACCGAUCUAGAAGGCACAUGAGGAUCACCCAUGUGGGUAACGUCG [Brourd's EX4 #33] (Eterna round: R97, puzzle: Brourd's mod of Exclusion 4)”, the “apparent KD of MS2 coat protein” value is 29 nM (input ligand: FMN 200 uM) and 22.3 nM (input ligand: none).

Turning to “AAUAAAACAUAGGAUAUCGAAUUUAUUAUUUAACGAGAAGGAUGAACAUGAGGAUCACCCAUGUGGUAUCAUGG [Mat - Exclusion 6 - JL Mod - D24] (puzzle: Exclusion 6)”, the “apparent KD of MS2 coat protein” value under setting [3] is 258 nM, the “apparent KD of MS2 coat protein” value under setting [2] amounted to 190 nM and the “apparent KD of MS2 coat protein” value under setting [4] was 207 nM.

Regarding “AAUAACAAGCAGAUCCUAAACAUGAGGAUCACCCAUGUGCGCGUCUUGUAAAGUACUAUCACGAAAGUGAUAGUACA (Eterna round: R97, puzzle: Sensor, turn-off variant 1)”, the “apparent KD of MS2 coat protein” value turned out to be 190 nM (input ligand: FMN 200 uM) and 133 nM (input ligand: none).

With “AAUAACAAGCCGAUCCUUCACAUGAGGAUCACCCAUGUGCUCGUCUUGUAAAGUACUAUCACGAAAGUGAUAGUACA (Eterna round: R97, puzzle: Sensor, turn-off variant 1)”, the “apparent KD of MS2 coat protein” value was 22.6 nM (input ligand: FMN 200 uM) and 19.9 nM (input ligand: none).

Turning to “AAUAACAGAGGAUAUACUGUUUUAUGUGUUUAUUGUUUUAAACAUGAGGAUCACCCAUGUAGAAGGCUGAAUGA [JMF 58] (puzzle: Exclusion 2)”, the “apparent KD of MS2 coat protein” value under setting [2] was 36.4 nM.

For the sequence “AAUAACAGAGGAUAUACUGUUUUAUGUGUUUAUUGUUUUGAACAUGAGGAUCACCCAUGUAGAAGGCUGAGUAA [JMF 39] (puzzle: Exclusion 2)”, the “apparent KD of MS2 coat protein” value under setting [2] was found to be 24.5 nM.

As for “AAUAACAGAGGAUAUACUGUUUUAUGUGUUUGUUAUUUUGAACAUGAGGAUCACCCAUGUAGAAGGCUGAGUAA [JMF 37] (puzzle: Exclusion 2)”, under setting [2], the “apparent KD of MS2 coat protein” value is 23.6 nM.

On to “AAUAACAGAGGAUAUACUGUUUUAUGUGUUUGUUGUUUUGAACAUGAGGAUCACCCAUGUAGAAGGCUGAUUAA [JMF 53] (Eterna round: R96, puzzle: Exclusion 2)”, for which the “apparent KD of MS2 coat protein” value (input ligand: FMN 200 uM) is 38.4 nM, the “apparent KD of MS2 coat protein” value under setting [1] was found to be 31 nM and the “apparent KD of MS2 coat protein” value (input ligand: none) was found to be 38.5 nM.

Regarding “AAUAACAGAGGAUAUACUGUUUUAUGUGUUUGUUGUUUUGAACAUGAGGAUCACCCAUGUAGAAGGCUGAUUAA [JMF 53] (puzzle: Exclusion 2)”, the “apparent KD of MS2 coat protein” value under setting [2] is 31.6 nM.

For “AAUAACAGGCCGAUCCUAAACAUGAGGAUCACCCAUGUGCGCGUCUUGUAAAGUACUAUCACGAAAGUGAUAGUACA [Sensor v3, turn-off variant 1 (MOD of Eli's v1-59 v.3)] (puzzle: Sensor v3, turn-off variant 1)”, the “apparent KD of MS2 coat protein” value under setting [3] was 41.8 nM, the “apparent KD of MS2 coat protein” value under setting [2] was determined as 37.1 nM and the “apparent KD of MS2 coat protein” value under setting [4] stood at 43.7 nM.

Take “AAUAAGGUAGGAUAUACAUGAGGAUCACCCAUGUCCCACCCGUUACCUAUGACCAUAUGUAGAAGGACCAAUAA [Exy#1] (Eterna round: R97, puzzle: Exclusion 3)”: the “apparent KD of MS2 coat protein” value by setting is: (input ligand: FMN 200 uM) 20 nM; (input ligand: none) 21.3 nM.

As to “AAUAAUAAUGUGAGGAUAUCUAGAGCUUCGGCUCUAGAGAAGGCACAUGAGGAUCACCCAUGUCUCAAUAAUAA [BmEx4/2-E4] (Eterna round: R97, puzzle: Brourd's mod of Exclusion 4)”, the “apparent KD of MS2 coat protein” value by setting is: (input ligand: FMN 200 uM) 263 nM; (input ligand: none) 53.4 nM.
